How the values were obtained:
Assay in all cases: SPR
[1] = target: pVRC07-523-LS
[2] = target: pPGT121
[3] = target: pPGT121-YTE
[4] = target: pPGT121-LS

Measured: Kd

Rhesus macaque FcγR IIIa-1 (from UniProt A3RFZ7 21-254) (receptor)
> 20 µM: all assays above

Rhesus macaque FcγR IIIa-3 (from UniProt A3RFZ7 21-254) (receptor)
> 20 µM: all assays above

Rhesus macaque FcγR IIa-2 (receptor)
> 20 µM: all assays above

Rhesus macaque FcγR IIa-4 (receptor)
> 20 µM: all assays above

Rhesus macaque FcγR IIb-1 (receptor)
> 20 µM: all assays above

Source: PMC10127586
